Here are results for 1 substance from publication PMC5581337.

The test addresses HA-NRX2αS1(+) S2(+) S3(+) S4(−) (extracellularly HA-tagged neurexin2α without the insert at splice site 4) (mouse) (UniProt E9Q7X7). Kind of test: cell surface binding assay; Scatchard plot analysis of IgSF21-Fc bound to COS-7 cells expressing HA-NRX2αS4(-), n = 30 cells.

“IgSF21-Fc (ectodomain of rat IgSF21 fused to the human immunoglobulin Fc region) (from UniProt M0RAS4 25-448) (Fc fusion)” yielded a dissociation constant Kd of 21 nM.
